Experimental data from patent US12497460B2, “Anti-MSR1 antibodies and methods of use thereof” (REGENERON PHARMACEUTICALS, INC., priority 2018, dated 2025).

T1: His9-hMSR1 (human MSR1 extracellular domain) (Homo sapiens, UniProt P21757)
T1 construct: human MSR1 extracellular domain expressed with a N-terminal nonahistidine tag; His9 (nonahistidine) (N); purchased R&D Systems 2708-MS
T1 sequence (P21757 77-451 limits assumed): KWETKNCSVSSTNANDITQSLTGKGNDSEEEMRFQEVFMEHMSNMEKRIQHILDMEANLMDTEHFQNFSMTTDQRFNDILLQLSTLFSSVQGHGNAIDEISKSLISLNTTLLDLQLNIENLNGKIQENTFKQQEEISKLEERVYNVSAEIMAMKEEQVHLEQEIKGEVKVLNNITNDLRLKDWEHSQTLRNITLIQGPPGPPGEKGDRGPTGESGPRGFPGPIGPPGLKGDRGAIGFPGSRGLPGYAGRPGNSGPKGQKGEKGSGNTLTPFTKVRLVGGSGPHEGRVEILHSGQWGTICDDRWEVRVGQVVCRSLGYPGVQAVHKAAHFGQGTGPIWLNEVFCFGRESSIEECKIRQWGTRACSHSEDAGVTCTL

T2: MSR1-mediated Dil-AcLDL uptake in HEK293.Myc.hMSR1 cells (Homo sapiens, UniProt P21757)
T2 construct: expressed in transfected cells; host or cells: HEK293 (lentiviral transduction, hygromycin selection)
T2 sequence (P21757 1-451): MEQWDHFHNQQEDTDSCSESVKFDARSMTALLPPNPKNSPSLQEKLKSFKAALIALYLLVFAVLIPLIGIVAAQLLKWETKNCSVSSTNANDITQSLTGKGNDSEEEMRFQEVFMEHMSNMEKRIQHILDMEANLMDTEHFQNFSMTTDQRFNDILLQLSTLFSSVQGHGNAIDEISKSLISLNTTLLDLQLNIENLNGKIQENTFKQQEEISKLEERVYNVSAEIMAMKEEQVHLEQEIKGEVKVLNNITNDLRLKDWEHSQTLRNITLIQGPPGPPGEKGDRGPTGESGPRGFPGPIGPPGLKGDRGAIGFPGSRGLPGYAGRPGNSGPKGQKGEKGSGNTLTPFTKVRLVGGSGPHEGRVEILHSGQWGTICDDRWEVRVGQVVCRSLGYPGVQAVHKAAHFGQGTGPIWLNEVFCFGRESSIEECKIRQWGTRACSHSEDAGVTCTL

T3: PMA-treated THP-1 cells (endogenously expressed human MSR1) (Homo sapiens, UniProt P21757)
T3 construct: endogenous in cells; host or cells: THP-1 cells differentiated with PMA
T3 sequence (P21757 1-451): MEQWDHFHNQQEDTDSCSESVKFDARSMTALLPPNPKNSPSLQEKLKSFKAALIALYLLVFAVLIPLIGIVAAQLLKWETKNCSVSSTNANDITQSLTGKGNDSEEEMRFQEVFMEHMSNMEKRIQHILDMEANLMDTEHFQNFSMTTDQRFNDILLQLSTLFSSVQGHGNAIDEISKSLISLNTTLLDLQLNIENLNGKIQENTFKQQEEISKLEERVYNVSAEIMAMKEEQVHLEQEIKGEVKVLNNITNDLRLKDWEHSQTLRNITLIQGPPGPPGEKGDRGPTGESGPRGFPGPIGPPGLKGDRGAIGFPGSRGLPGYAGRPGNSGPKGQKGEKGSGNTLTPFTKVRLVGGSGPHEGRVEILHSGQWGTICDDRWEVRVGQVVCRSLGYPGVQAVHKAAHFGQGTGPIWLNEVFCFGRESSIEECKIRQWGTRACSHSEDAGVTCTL

B1: H1H21231N-N297Q: modified version of "21231N (H1H21231N-N297Q) anti-MSR1 antibodies" with "a N297Q single point mutation" (antibody, V domains shown)
VH: EVQLVESGGGLVQPGGSLRLSCAASGFTFSDHYMDWVRQAPGKGLEWVGRTRNKANSHTTEYTASVTGRFTISRDDSRNSLYLQMNSLKTEDTAVYYCVRAGIIGTLFDYWGQGTLVTVSS
VL: DIQMTQFPSSLSASVGDRVTITCRASQSISSFLNWFQQKPGKAPKFLIYAASSLQSGVPSRFSGSGSGTDFTLTISSLQPEDFATYYCQQSYSSPPITFGQGTRLEIKR
B2: H1H21231N: "anti-MSR1 antibodies ... (21227N, 21231N, 21234N) were produced with the original human Fcγ portion"; "H1H" = human IgG1 Fc (antibody, V domains shown)
VH: EVQLVESGGGLVQPGGSLRLSCAASGFTFSDHYMDWVRQAPGKGLEWVGRTRNKANSHTTEYTASVTGRFTISRDDSRNSLYLQMNSLKTEDTAVYYCVRAGIIGTLFDYWGQGTLVTVSS
VL: DIQMTQFPSSLSASVGDRVTITCRASQSISSFLNWFQQKPGKAPKFLIYAASSLQSGVPSRFSGSGSGTDFTLTISSLQPEDFATYYCQQSYSSPPITFGQGTRLEIKR
modifications: human IgG1 Fc
notes: "anti-MSR1 antibodies ; (21227N, 21231N, 21234N) were produced with the original human Fcγ portion"; "H1H" = human IgG1 Fc
B3: H1H21234N-N297Q-LP13 (conjugate)
VH: QVQLQESGPGLVKPSETLSLTCTVTGGSISRNYWSWIRQPPGKGLEWIGYIYYSGSIDYNPSLKSRVTISVDTSKNQFSLKLSSMTAADTAVYYCARDRWNWKYGMDVWGQGTTVIVSS
VL: EIVLTQSPGTLSLSPGERATLSCRASQTVRNNYLAWYHQKPGQAPRLLIYGASSRATGIPDRFSGSGSGTDFTLTISRLEPEDFTVYYCHQYGNSPWTFGQGTKMEIKR
B4: H1H27739P-N297Q: anti-MSR1 antibody "made with an N297Q single point mutation in human Fcγ portion" (antibody, V domains shown)
VH: EVQLVESGGGLVQPGGSLRLSCTASGFTFSSYAMSWVRQAPGKGLEWVSAISGTGSSTYFTDSVKGRFAISRDNSKNTLYLQMNSLRAEDTAVYYCAKDGEWLSTVTLFDYWGQGTLVTVSS
VL: EIVMTQSPATLSVSPGERATLSCRASQSVSSNLAWYQQKPGQAPRLLIYGASTRATGIPARFSGSGSGTDFTLTISSLQSEDFALYYCQQYFIWPPHPTFGPGTKVDIKR
B5: H1H27729P-N297Q: anti-MSR1 antibody "made with an N297Q single point mutation in human Fcγ portion" (antibody, V domains shown)
VH: QVQLVESGGGLVKPGGSLRLSCAASGFIFSDYYMSWIRQAPGKGLEWVSYISSSGTTIYGDSVKGRFTMSRDNAKNSLYLQMNSLRAEDTAVYYCARNYALFDYWGQGTLVTVSS
VL: DIQMTQSPSSLSASVGDRVTITCQASQDISKYLNWYQQKPGKAPKLLIYYTSNLETGVPSRFSGSGSGTDFTFTISSLQPEDIATYYCHQSDYLPFTFGPGTKVDIKR
B6: H1H27747P-N297Q (antibody, V domains shown)
VH: QVQLVESGGAVVQPGRSLRLSCAASGFTFSYYGMHWVRQAPGKGLEWVAVISYDGSKKYYADSVKGRFTISRDNSKNTLYLQMNSLRAEDTAVYYCAKDLTVDFYYGMDVWGQGTTVTVSS
VL: DIQMTQSPSSVSASVGDRVTITCRASQGISSWLAWYQQKPGKAPKLLIYATSSLQSGAPSRFSGSGSGTDFTLTISSLQPEDFATYFCQQANSFPYTFGQGTKLEIKR

Experiments:
[1] = target: T1, His9-hMSR1 (human MSR1 extracellular domain); experiment: Biacore surface plasmon resonance binding kinetics of anti-MSR1 mAbs, antibody-capture format; conditions: analyte His9-hMSR1, NB = no binding observed; for kd: * = no dissociation observed, kd manually fixed at 1.00E−05; for ka: antibody-capture format; for Kd: calculated from kinetic rates; for t½: dissociative half-life
Description: Binding affinities and kinetic constants of human anti-MSR1 antibodies for different MSR1 reagents were determined by real-time surface plasmon resonance (Biacore 4000). All binding studies were performed in 10 mM HEPES, 150 mM NaCl, 3 mM EDTA, and 0.05% v/v Surfactant Tween-20, pH 7.4 (HBS-ET) running buffer at 25° C. and 37° C.
(§1) The association rate (ka) and dissociation rate (kd) were determined by fitting the real-time binding sensorgrams to a 1:1 binding model with mass transport limitation using Scrubber 2.0c curve-fitting software. Binding dissociation equilibrium constant (KD) and dissociative half-life (t½) were calculated from the kinetic rates as: […]

[2] = target: T2, MSR1-mediated Dil-AcLDL uptake in HEK293.Myc.hMSR1 cells; experiment: Ligand uptake assay, Dil-AcLDL; assay type: cell-based; conditions: 10 μg/mL Dil-AcLDL; for Dil-Acetylated LDL % Inhibition: maximum inhibition
Description: A bioassay was generated to assess the ability of the exemplary anti-MSR1 antibodies to regulate the uptake of certain MSR1 ligands.
Generation of MSR1-expressing cell lines for assay. […] The resulting cell line, referred to here as “HEK293.Myc.hMSR1”, was selected and maintained in DMEM containing 10% FIBS, NEAA, penicillin/streptomycin, L-glutamine, and 100 μg/mL hygromycin.
Ligand uptake assay. […] After 30 minutes, either oxidized or acetylated low-density lipoprotein (LDL) labeled with 1,1′dioctadecyl-3,3,3′,3′-tetramethylindocarbocyanine perchlorate (referred to as “Dil-OxLDL” or “Dil-AcLDL,” respectively) was added to the cells at a constant concentration of 10 μg/mL. […] Results were analyzed using nonlinear regression (4-parameter logistics) with the Prism 7 program to obtain EC50 and IC50 values. The percentage of inhibition was calculated with the Relative Fluorescent Unit (RFU) values by using the following equation: […]
In the equation, “RFUBaseline” is the fluorescence value from the cells treated with 10 μg/mL ligand without antibodies, “RFUInhibition” is the minimum fluorescence value with for a particular antibody with 10 μg/mL ligand, and “RFUBackground” is the fluorescence value from cells without any ligand or antibodies.

[3] = target: T3, PMA-treated THP-1 cells (endogenously expressed human MSR1); experiment: Electrochemiluminescence antibody binding assay on MSR1-expressing cells; assay type: cell-based
[4] = target: T1, His9-hMSR1 (human MSR1 extracellular domain); experiment: Biacore T200 surface plasmon resonance binding kinetics of anti-MSR1 antibody-drug conjugates and parental antibodies; conditions: 25° C.; for kd: * = no dissociation observed, kd manually fixed at 1.00E−05
Description: The MSR1 antibodies disclosed herein were conjugated to various liver X receptor (LXR) payloads or various steroid payloads. This example describes how equilibrium dissociation constant (KD) values for human MSR1 reagents binding to human anti-MSR1 antibody-drug conjugates and their corresponding unconjugated parental antibodies were determined using a real-time surface plasmon resonance-based Biacore T200 biosensor.
All binding studies were performed in 10 mM HEPES, 300 mM NaCl, 3 mM EDTA, and 0.05% v/v Surfactant Tween-20, pH 7.4 (HBS-ET) running buffer at 25° C. The Biacore CM4 sensor chip surface was first derivatized by amine coupling with the goat anti-human Fcγ specific polyclonal antibody (Jackson ImmunoResearch Laboratories, Cat #BR-1008-39) to capture anti-MSR1 monoclonal antibodies. Binding studies were performed on human MSR1 extracellular domain expressed with a N-terminal nonahistidine tag (His9-hMSR1; R&D Systems, Cat #2708-MS).
as §1
Binding kinetics parameters for His9-hMSR1 binding to different anti-MSR1 antibody-LXR ADCs and their unconjugated parental antibodies at 25° C. are shown in Table 19. “LP1” represents a linker-payload for which the payload structure is provided in Example 11.
The binding studies were repeated with anti-MSR1 antibody H1H21234-N297Q and steroid linker payloads (LPs). “LP3” represents a linker-payload for which the structure is provided in Example 23, and “LP13” represents a linker-payload for which the structure is provided in Example 24.

parental HEK293 cells = experiment: Electrochemiluminescence antibody binding assay, non-specific binding control cells; assay type: cell-based, human
[5] = Table 19, antibody-LXR ADCs and unconjugated antibodies

Row | Molecule | kd ([1]; 25° C.) | ka ([1]; 25° C.) | Kd ([1]; 25° C.) | t½ ([1]; 25° C.) | kd ([1]; 37° C.) | ka ([1]; 37° C.) | Kd ([1]; 37° C.) | t½ ([1]; 37° C.) | Dil-Acetylated LDL % Inhibition [2] | Ratio of 11 nM Antibody Binding Signal (RLU) to isotype control, PMA-treated THP-1 [3] | IC50 ([2]; read-out: Dil-Acetylated LDL IC50) | ka ([4]; Table 20, antibody-steroid ADCs and unconjugated antibody) | kd ([4]; Table 20) | ka [4, 5] | kd ([4]; Table 19) | Dil-Acetylated LDL IC50 [2] | maximum inhibition of Dil-AcLDL uptake [2] | Ratio of 11 nM Antibody Binding Signal (RLU) to isotype control, HEK293 (parental HEK293 cells)
1 | B1 | 5.88e-05 s⁻¹ | 399000 M⁻¹ s⁻¹ | 147 pM | 3.27 h | 0.000115 s⁻¹ | 534000 M⁻¹ s⁻¹ | 215 pM | 1.68 h | 62% | – | – | – | – | – | – | – | – | –
2 | B2 | 1.00E−05* s^−1 | 477000 M⁻¹ s⁻¹ | 21 pM | 19.25 h | 9.09e-05 s⁻¹ | 702000 M⁻¹ s⁻¹ | 130 pM | 2.12 h | 63% | 42 | 3500 pM | – | – | – | – | – | – | –
3 | B3 | – | – | – | – | – | – | – | – | – | – | – | 400000 M⁻¹ s⁻¹ | 1e-05 s⁻¹ | – | – | – | – | –
4 | B4 | 0.00103 s⁻¹ | 375000 M⁻¹ s⁻¹ | – | – | 0.00288 s⁻¹ | 776000 M⁻¹ s⁻¹ | – | – | no inhibition | 9 | – | – | – | 119000 M⁻¹ s⁻¹ | 0.000555 s⁻¹ | no inhibition | no inhibition | –
5 | B5 | 0.00107 s⁻¹ | 197000 M⁻¹ s⁻¹ | – | – | 0.00204 s⁻¹ | 239000 M⁻¹ s⁻¹ | – | – | – | – | – | – | – | 105000 M⁻¹ s⁻¹ | 0.000906 s⁻¹ | – | – | 3
6 | B6 | 0.000652 s⁻¹ | 243000 M⁻¹ s⁻¹ | – | – | 0.00276 s⁻¹ | 513000 M⁻¹ s⁻¹ | – | – | – | – | – | – | – | 117000 M⁻¹ s⁻¹ | 0.000262 s⁻¹ | – | – | –
